Paper PMC12588282 (Science Advances, 2025)
Several values for one entry are separate records, joined by “and”; a condition that tells them apart may be missing. Identical values can stand only once.

What was measured:
[1] = target: Human Fcμ variant with the tailpiece truncated to 14 residues (human); assay: native gel or EMSA
[2] = target: Human Fcμ variant with the tailpiece truncated to 14 residues (human); assay: 2D cryo-EM classification
[3] = target: Human Fcμ variant with the tailpiece truncated to 13 residues (human); assay: native gel or EMSA
[4] = target: Human Fcμ variant with the tailpiece truncated to 13 residues (human); assay: 2D cryo-EM classification
[5] = target: Recombinant human Fcμ with an intact 18-amino acid tailpiece (human); assay: AUC
[6] = target: Recombinant human Fcμ with an intact 18-amino acid tailpiece (human); assay: 2D cryo-EM classification
[7] = target: Human Fcμ variant with the tailpiece truncated to 15 residues (human); assay: native gel or EMSA
[8] = target: Human Fcμ variant with the tailpiece truncated to 15 residues (human); assay: 2D cryo-EM classification
[9] = target: Human Fcμ variant with the tailpiece truncated to 16 residues (human); assay: native gel or EMSA
[10] = target: Human Fcμ variant with the tailpiece truncated to 16 residues (human); assay: 2D cryo-EM classification
[11] = target: Human Fcμ variant with the tailpiece truncated to 17 residues (human); assay: 2D cryo-EM classification
[12] = target: Fc region of the Xenopus laevis IgX heavy chain (Cχ2, Cχ3, Cχ4 and χtp) (Xenopus laevis); assay: 2D cryo-EM classification
[13] = target: Fragment of Fcχ consisting of Cχ3, Cχ4 and χtp (Xenopus laevis); assay: cryo-EM structure
[14] = target: Fragment of Fcχ consisting of Cχ3, Cχ4 and χtp (Xenopus laevis); assay: 2D cryo-EM classification
[15] = target: the molecule itself; assay: 2D cryo-EM classification
[16] = target: the molecule itself; assay: AUC

## Human Fcμ variant with the tailpiece truncated to 14 residues (domain or fragment)
[1]
  stoichiometry N: 6
[2]
  stoichiometry N: 6

## Human Fcμ variant with the tailpiece truncated to 13 residues (domain or fragment)
[3]
  stoichiometry N: 6
[4]
  stoichiometry N: 6

## Recombinant human Fcμ with an intact 18-amino acid tailpiece (domain or fragment)
[5]
  stoichiometry N: 4 and 5 and 6
[6]
  stoichiometry N: 6 and 4 and 5

## Human Fcμ variant with the tailpiece truncated to 15 residues (domain or fragment)
[7]
  stoichiometry N: 6
[8]
  stoichiometry N: 6

## Human Fcμ variant with the tailpiece truncated to 16 residues (domain or fragment)
[9]
  stoichiometry N: 6
[10]
  stoichiometry N: 6

## Human Fcμ variant with the tailpiece truncated to 17 residues (domain or fragment)
[11]
  stoichiometry N: 6 and 5

## Fc region of the Xenopus laevis IgX heavy chain (Cχ2, Cχ3, Cχ4 and χtp) (domain or fragment)
[12]
  stoichiometry N: 6

## Fragment of Fcχ consisting of Cχ3, Cχ4 and χtp (domain or fragment)
[13]
  stoichiometry N: 6
[14]
  stoichiometry N: 6

B1: Human Fcμ variant with the tailpiece truncated to 12 residues (domain or fragment)
chain: IAELPPKVSVFVPPRDGFFGNPRKSKLICQATGFSPRQIQVSWLREGKQVGSGVTTDQVQAEAKESGPTTYKVTSTLTIKESDWLGQSMFTCRVDHRGLTFQQNASSMCVPDQDTAIRVFAIPPSFASIFLTKSTKLTCLVTDLTTYDSVTISWTRQNGEAVKTHTNISESHPNATFSAVGEASICEDDWNSGERFTCTVTHTDLPSPLKQTISRPKGVALHRPDVYLLPPAREQLNLRESATITCLVTGFSPADVFVQWMQRGQPLSPEKYVTSAPMPEPQAPGRYFAHSILTVSEEEWNTGETYTCVVAHEALPNRVTERTVDKSTGKPTLYNVSLVMSD
[15]
  stoichiometry N: 6

B2: Human Fcμ variant with the tailpiece truncated to 10 residues (domain or fragment)
chain: IAELPPKVSVFVPPRDGFFGNPRKSKLICQATGFSPRQIQVSWLREGKQVGSGVTTDQVQAEAKESGPTTYKVTSTLTIKESDWLGQSMFTCRVDHRGLTFQQNASSMCVPDQDTAIRVFAIPPSFASIFLTKSTKLTCLVTDLTTYDSVTISWTRQNGEAVKTHTNISESHPNATFSAVGEASICEDDWNSGERFTCTVTHTDLPSPLKQTISRPKGVALHRPDVYLLPPAREQLNLRESATITCLVTGFSPADVFVQWMQRGQPLSPEKYVTSAPMPEPQAPGRYFAHSILTVSEEEWNTGETYTCVVAHEALPNRVTERTVDKSTGKPTLYNVSLVM
[15]
  stoichiometry N: 6 and 4

B3: Human Fcμ variant with the tailpiece truncated to 11 residues (domain or fragment)
chain: IAELPPKVSVFVPPRDGFFGNPRKSKLICQATGFSPRQIQVSWLREGKQVGSGVTTDQVQAEAKESGPTTYKVTSTLTIKESDWLGQSMFTCRVDHRGLTFQQNASSMCVPDQDTAIRVFAIPPSFASIFLTKSTKLTCLVTDLTTYDSVTISWTRQNGEAVKTHTNISESHPNATFSAVGEASICEDDWNSGERFTCTVTHTDLPSPLKQTISRPKGVALHRPDVYLLPPAREQLNLRESATITCLVTGFSPADVFVQWMQRGQPLSPEKYVTSAPMPEPQAPGRYFAHSILTVSEEEWNTGETYTCVVAHEALPNRVTERTVDKSTGKPTLYNVSLVMS
modifications: glycosylation at Asn563
[16]
  stoichiometry N: 6
